B1: TPR t1 (parent)
chain: GACCAAUCUGCCCUCAGAGCUCGAGAACAUCUUCGGAUGCAGAGGAGGCAGGCUUCGGUGGCGCGAUAGCGCCAACGUCCUCAACCUCCAAUGCAUCCCACCACAUGAUGAUGCCUGAAGAGCCUUGGUUUUUUG

Variants of: B1
Experiment: polymerase ribozyme fitness, log enrichment relative to wild type (log ratio); higher = more active; in vitro selection for triplet polymerase activity
Outline: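 Only genotypes with ≥10 input reads and ≥1 read per output were kept after Illumina sequencing of input and output libraries. These libraries were PCR-built, transcribed mutants of each subunit of a heterodimeric triplet polymerase ribozyme, each put through one triplicate in vitro selection round with frozen incubation at −7 °C, gel excision of extended constructs, streptavidin-bead capture and RT-PCR. Fitness is a logarithmic ratio of genotype enrichment to wild-type enrichment, from inverse-variance-weighted replicate averages, with the logarithm in base 2.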

Question: Which “polymerase ribozyme fitness (log ratio)” value does the source give for GACCAAUCUGCCCUCAGAGCUCGAGAACAUCUUCGGAUGCAGAGGAGGCAGGCUUCGGUGGCCCGAUAGCGCCAACGUCCUCAACCUCCAAUGCAUCCCACCACAUGAUGAUGCGUGAAGAGCCUUGGUUUUUUG [G63C C115G] here?
Answer: Its value is -2.43.

Question: Which “polymerase ribozyme fitness (log ratio)” value does the source give for GACCAAUCUGCCCUCAGAGCUCGAGAACAUCUUCGGAUGCAGAGGAGGCAGGCUUCGGUGGCCCGAUAGCGCCAACGUCCUCAACCUCCAAUGCAUCCCACCAUAUGAUGAUGCCUGAAGAGCCUUGGUUUUUUG [G63C C104U] here?
Answer: The value was -0.59.

Question: Which “polymerase ribozyme fitness (log ratio)” value does the source give for GACCAAUCUGCCCUCAGAGCUCGAGAACAUCUUCGGAUGCAGAGGAGGCAGGCUUCGGUGGCCCGAUAGCGCCAACGUCCUCAACCUCCAAUGCAUCCCACCACAUGAUGAUGCCUGAAGAGCCUUGGUUUAUUG [G63C U132A] here?
Answer: The value was -0.875.

Question: For GACCAAUCUGCCCUCAGAGCUCGAGAACAUCUUCGGAUGCAGAGGAGGCAGGCUUCGGUGGCCCGAUAGCGCCAACGUCCUCAGCCUCCAAUGCAUCCCACCACAUGAUGAUGCCUGAAGAGCCUUGGUUUUUUG [G63C A84G], which “polymerase ribozyme fitness (log ratio)” value is on record?
Answer: Its value is -1.73.

Question: With GACCAAUCUGCCCUCAGAGCUCGAGAACAUCUUCGGAUGCAGAGGAGGCAGGCUUCGGUGGCCCGAUAGCGCCAACGUCCUCAACCUCCAAUGCAUCCCACCACAUGAUGAAGCCUGAAGAGCCUUGGUUUUUUG [G63C U112A] as the variant, how does the “polymerase ribozyme fitness (log ratio)” value read?
Answer: Its value is 0.435.

Question: With GACCAAUCUGCCCUCAGAGCUCGAGAACAUCUUCGGAUGCAGAGGAGGCAGGCUUCGGUGGCCCGAUAGCGCCAACGUCCUCAACCUCCAAUGCAUCCCACCACAUGAUGAGGCCUGAAGAGCCUUGGUUUUUUG [G63C U112G] as the variant, how does the “polymerase ribozyme fitness (log ratio)” value read?
Answer: The value was -0.181.

Question: With GACCAAUCUGCCCUCAGAGCUCGAGAACAUCUUCGGAUGCAGAGGAGGCAGGCUUCGGUGGCACGAUAGCGCCAACGGCCUCAACCUCCAAUGCAUCCCACCACAUGAUGAUGCCUGAAGAGCCUUGGUUUUUUG [G63A U78G] as the variant, how does the “polymerase ribozyme fitness (log ratio)” value read?
Answer: The value was -2.6.

Question: With GACCAAUCUGCCCUCAGAGCUCGAGAACAUCUUCGGAUGCAGAGGAGGCAGGCUUCGGUGGCACGAUAGCGCCAACGUCCUCAACCUCCAAUGCAUCCCACCACAUGAUGAAGCCUGAAGAGCCAUGGUUUUUUG [G63A U112A U125A] as the variant, how does the “polymerase ribozyme fitness (log ratio)” value read?
Answer: The value was -1.17.

Question: Which “polymerase ribozyme fitness (log ratio)” value does the source give for GACCAAUCUGCCCUCAGAGCUCGAGAACAUCUUCGGAUGCAGAGGAGGCAGGCUUCGGUGGCUCGAUAGCGCCUACGUCCUCAACCUCCAAUGCAUCCCACCACAUGAUGAUGCCUGAAGAGCCUUGGUUUUUUG [G63U A74U] here?
Answer: Its value is -4.43.

Question: For GACCAAUCUGCCCUCAGAGCUCGAGAACAUCUUCGGAUGCAGAGGAGGCAGGCUUCGGUGGCCCGAUAGCGCCAACGUCCUCAACCUCCAAUGCAUACCACCACAUGAUGAUGCCUGAACAGCCUAGGUUUUUUG [G63C C97A G120C U126A], which “polymerase ribozyme fitness (log ratio)” value is on record?
Answer: The value was -6.28.

Question: For GACCAAUCUGCCCUCAGAGCUCGAGAACAUCUUCGGAUGCAGAGGAGGCAGGCUUCGGUGGCCCGAUAGCGCCAACGUCCUCAACCACCAAUGCAUCCCACCACAUGAUGAUGCCUGAAGAGCCUUGGUCUUUUU [G63C U87A U130C G135U], which “polymerase ribozyme fitness (log ratio)” value is on record?
Answer: The value was -1.49.

Question: With GACCAAUCUGCCCUCAGAGCUCGAGAACAUCUUCGGAUGCAGAGGAGGCAGGCUUCGGUGGCCCGAUAGCGCCAACGUCCUCAACCUCCAAUGCAUCCCACCACAUGAUGAUGCCUGAAGAGACUUAGUUUUUUC [G63C C123A G127A G135C] as the variant, how does the “polymerase ribozyme fitness (log ratio)” value read?
Answer: The value was -0.151.

Question: For GACCAAUCUGCCCUCAGAGCUCGAGAACAUCUUCGGAUGCAGAGGAGGCAGGCUUCGGUGGCCCGAUAGCGCCAACGUCCGCAACCUCCAAUGCAUCCCACCACAUGAUGAUGCCUGAAAAGCCUUGGUUUUUUG [G63C U81G G120A], which “polymerase ribozyme fitness (log ratio)” value is on record?
Answer: The value was -3.19.

Question: With GACCAAUCUGCCCUCAGAGCUCGAGAACAUCUUCGGAUGCAGAGGAGGCAGGCUUCGGUGGCCCGAUAGCGCCAACGUCCUCAACUUCCAAUGCAUCCCACCACAUGAUGAAGCCUGAAGAGCCUUGGUUUUUUG [G63C C86U U112A] as the variant, how does the “polymerase ribozyme fitness (log ratio)” value read?
Answer: Its value is 0.23.

Question: Which “polymerase ribozyme fitness (log ratio)” value does the source give for GACCAAUCUGCCCUCAGAGCUCGAGAACAUCUUCGGAUGCAGAGGAGGCAGGCUUCGGUGGCCCGAUAGCGCCAACGUCCUCAACAUCCAAUGCAUCCCACCACAUGAUGAUGCCUGGAGAGCCUUGGUUUUUUG [G63C C86A A118G] here?
Answer: The value was -2.3.

Question: With GACCAAUCUGCCCUCAGAGCUCGAGAACAUCUUCGGAUGCAGAGGAGGCAGGCUUCGGUGGCCCGAUAGCGCCAACGUCCUCAACCUCCAAUGCAUCCCACCACAUGAUGAUGCCUGAAGCGCCUUGGUUUUUUG [G63C A121C] as the variant, how does the “polymerase ribozyme fitness (log ratio)” value read?
Answer: Its value is 0.84.

Question: With GACCAAUCUGCCCUCAGAGCUCGAGAACAUCUUCGGAUGCAGAGGAGGCAGGCUUCGGUGGCCCGAUAGCGCCAACGUCCUCAACCUCCAAUGCAUCCCACCACAUGAUGAUGCCUGAAGGGCCUUGGUUUUUUG [G63C A121G] as the variant, how does the “polymerase ribozyme fitness (log ratio)” value read?
Answer: The value was 0.727.

Question: Which “polymerase ribozyme fitness (log ratio)” value does the source give for GACCAAUCUGCCCUCAGAGCUCGAGAACAUCUUCGGAUGCAGAGGAGGCAGGCUUCGGUGGCCCGAUAGCGCCAACGUCCUCAACAUCCAAUGCAGCCCACAACAUGAUGAUGCCUGAAGAGCCUUGGUUUUUUG [G63C C86A U96G C102A] here?
Answer: The value was -5.23.

Question: For GACCAAUCUGCCCUCAGAGCUCGAGAACAUCUUCGGAUGCAGAGGAGGCAGGCUUCGGUGGCACGAUAGCGCCAACGUCCUCAACCUCCAAUGCAUCCCACCACAUGAUGAUGCCUGAAGAGCCAUGGUUUUUUG [G63A U125A], which “polymerase ribozyme fitness (log ratio)” value is on record?
Answer: Its value is -1.21.

Question: With GACCAAUCUGCCCUCAGAGCUCGAGAACAUCUUCGGAUGCAGAGGAGGCAGGCUUCGGUGGCCCGAUAGCGCCAACGUCCUCAACCUCCAAUGCAUCCCACCACAUGAUGAUGCCUAAAGAGCCUUGGUUUUUUG [G63C G117A] as the variant, how does the “polymerase ribozyme fitness (log ratio)” value read?
Answer: Its value is -1.45.

Question: For GACCAAUCUGCCCUCAGAGCUCGAGAACAUCUUCGGAUGCAGAGGAGGCAGGCUUCGGUGGCCCGAUAGCGCCAACGUCCGCAACCUCCAAUGCAUCCCACCACAUGAUGAUGCCUGAAGAGCCUUGGUUUUUUG [G63C U81G], which “polymerase ribozyme fitness (log ratio)” value is on record?
Answer: Its value is -4.28.
